Columns and labels:
[1] = system: primary murine HSCs; assay: Collagen-α1(I)-GFP expression in primary HSCs from Col-GFP reporter mice; type: cell-based, mouse; conditions: 48 hours; for expression of GFP (percent of cells upregulated collagen-α1(I)-GFP): IL-17A 10 ng/ml
Source text: (§1) FIG. 9. […] Representative images are shown using ×20 objective. […] Deletion of Stat3 in HSCs was achieved by crossing GFAP-Cre mice×floxed Stat3^f/f mice=GFAP^Stat3−/− mice. […] Nuclear translocation of Stat3 (but not phosphor-Smad2/3) was detected in wild type HSCs but not in Stat3-deficient HSCs. Representative images are shown using ×20 objective. (E) IL-17-dependent collagen-α1(I) expression is impaired in Stat3-deficient HSCs.
For this purpose, primary HSCs were isolated from Col-GFP reporter mice (expressing GFP under collagen-α1(I) promoter) or Col-GFP^IL-17RA−/− mice (generated by crossing IL-17RA^−/− mice with Col-GFP mice, FIG. 9B).

[2] = system: Stat3; assay: Nuclear translocation of Stat3 in HSCs (fluorescent microscopy); type: cell-based, mouse; conditions: primary murine HSCs, IL-17A 10 ng/ml
Source text: as §1
Next, phosphorylation of IL-17 target proteins in KC and HSCs was assessed in vitro (FIG. 18E). […] While the IL-17 signaling pathway in macrophages is characterized^8,22 (and FIG. 18F), IL-17 signaling in HSCs is unknown. […] Thus, similar to macropahges^8,22, NF-κB and Stat3 are downstream targets of IL-17 signaling in HSCs. While NF-κB signaling is required for survival of activated HSC^23, Stat3 may mediate HSC activation by stimulating collagen production.

[3] = system: primary wild type HSCs and Stat3-deficient HSCs; assay: IL-17A-dependent collagen-α1(I) expression in wild type and Stat3-deficient HSCs; type: cell-based, mouse; conditions: IL-17A 10 ng/ml, 8 h
Source text: as §1
HSCs are the only liver cell type that expresses GFAP^1. The role of Stat3 in IL-17A-mediated collagen-α1(I) expression was tested in primary wild type HSCs and Stat3-deficient HSCs, isolated from GFAP^Stat3−/− mice (GFAP^Cre mice×floxed Stat3^f/f mice, FIG. 9D). […] Next, the relevance of IL-17 signaling was accessed in human HSC cell lines.

[4] = system: BDL-operated mice; assay: BDL-induced liver fibrosis in mice with daily administration of IL-22 or IL-17E; type: in vivo; conditions: 0.5 μg/mouse daily for 7 days, compared to BDL wt mice+PBS
Description: FIG. 11. IL-23 and IL-22 have opposing roles in liver fibrosis. […] Quantification of Sirius Red and α-SMA staining, mRNA expression is shown (p<0.05, compared to BDL wt mice). mRNA expression is fold induction compared to oil-control Wt→wt mice. (D) The percent of inhibition of liver fibrosis was calculated for BM chimeric mice in response to liver injury (in comparison Wt→wt mice, 100%, p<0.01) based on Sirius Red and α-SMA expression. […] Increased fibrosis was detected in IL-22^−/−→wt mice. (E) Administration of IL-22 and IL-17E attenuates liver fibrosis. BDL-operated mice were daily treated with IL-22 (0.5 μg/mouse, n=4), IL-17E (0.5 μg/mouse n=5), or vehicle (PBS) for 7 days, tissues were analyzed by Sirius Red, and α-SMA staining; mRNA expression is shown (p<0.05, compared to BDL wt mice+PBS).
Liver injury was induced in mice by […] with CCl4 (1:4 dilution in corn oil, 200 μl×12 injections^2) or by BDL (3 weeks)^2.
The role of IL-22 and IL-17E in liver fibrosis was examined in BDL-operated mice, injected with IL-22 (0.5 μg/mouse) or IL-17E (0.5 μg/mouse, FIG. 11E).

[5] = system: LX-2 human HSC cell line; assay: Fibrogenic gene mRNA induction in the LX-2 cell line (RT-PCR); type: cell-based; conditions: LX-2, 10 ng/ml, 72 h, compared with non-stimulated cells
Description: RT-PCR and real time quantitative PCR. […] Methods.
mRNA was isolated and RT-PCR was performed using ABI 7000 sequence detection system (Applied Biosystems), specific primers and SYBRGreen. Ct values of each sample were normalized to 18s mRNA expression. Values were expressed as fold induction in comparison with untreated or sham controls.

Molecule: TGF-β1: fibrogenic cytokine used as a control; purchased from R&D [reference compound]
- expression of collagen-α1(I)-GFP ([1]; both wild type and IL-17RA−/− HSCs, TGF-β1 3 ng/ml, control): strongly induced

Molecule: IL-17A: IL-17 family cytokine mainly produced by CD4+ Th17 cells; purchased from R&D
- expression of GFP (percent of cells upregulated collagen-α1(I)-GFP) ([1]; IL-17RA−/− HSCs (Col-GFP IL-17RA−/−)): 5±2%
- expression of GFP (percent of cells upregulated collagen-α1(I)-GFP) ([1]; wild type Col-GFP HSCs, baseline 1±0%): 34±7%
- time to nuclear translocation of Stat3 in HSCs [2]: 10 to 15 min
- collagen-α1(I) expression ([3]; Stat3-deficient HSCs from GFAP Stat3−/− mice): failed to induce
- collagen-α1(I) expression ([3]; wild type (Stat3f/f) HSCs): induced

B1: IL-17E: Interleukin 25; cytokine that binds to IL-17RA and IL-17RB heterodimers (protein)
chain: YSHWPSCCPSKGQDTSEELLRWSTVPVPPLEPARPNRHPESCRASEDGPLNSRAISPWRYELDRDLNRLPQDLYHARCLCPHCVSLQTGSHMDPRGNSELLYHNQTVFYRRPCHGEKGTHKGYCLERRLYRVSLACVCVRPRVMG
- reduction of Sirius Red staining [4]: 3 fold
- reduction of mRNA for Col-α1(I) [4]: 3 fold
- reduction of mRNA for α-SMA [4]: 2.5 fold

B2: IL-22: protein that in humans is encoded by the IL22 gene; cytokine purchased from R&D (protein, UniProt Q9GZX6 34-179, looked up)
Interleukin-22: APISSHCRLDKSNFQQPYITNRTFMLAKEASLADNNTDVRLIGEKLFHGVSMSERCYLMKQVLNFTLEEVLFPQSDRFQPYMQEVVPFLARLSNRLSTCHIEGDDLHIQRNVQKLKDTVKKLGESGEIKAIGELDLLFMSLRNACI
- reduction of Sirius Red staining [4]: 3 fold
- reduction of mRNA for Col-α1(I) [4]: 3 fold
- reduction of mRNA for α-SMA [4]: 2.5 fold

B3: IL-17F: IL-17 family cytokine; purchased from R&D (protein, UniProt Q96PD4 31-163, looked up)
Interleukin-17F: RKIPKVGHTFFQKPESCPPVPGGSMKLDIGIINENQRVSMSRNIESRSTSPWNYTVTWDPNRYPSEVVQAQCRNLGCINAQGKEDISMNSVPIQQETLVVRRKHQGCSVSFQLEKVLVTVGCTCVTPVIHHVQ
- induction of Col-α1(I) mRNA [5]: 7 fold
- induction of α-SMA mRNA [5]: 6 fold

Reference: US20150004133A1, “Compositions And Methods For Treating Steatohepatitis, Liver Fibrosis, and Hepatocellular Carcinoma (HCC)” (The Regents of the University of California, priority 2013, published 2015)
